The values below come from patent US20240269104A1, “METHOD FOR TREATING PARKINSON'S DISEASE” (Olatec Therapeutics, Inc., priority 2021, published 2024).

The conditions of data set [1]: in vivo; cited from earlier work.
Data set [2] concerns MPTP-injected-mouse model of PD. In words: accelerating rotarod test after MPTP-acute administration. Type of data set: in vivo, C56BL/J mice. Particulars: anakinra 20 mg/kg intraperitoneal 30 minutes before MPTP; day 3. On the procedure: MPTP (Sigma-Aldrich, St. Louis, MO) can be administered at two dose regimens: acute and sub-acute. For the acute regimen, MPTP was administered intraperitoneally (i.p.) four times in one day. Administrations were performed every two hours over an eight-hour period. For the subacute regimen, mice received a single i.p. administration of MPTP per day for five consecutive days. A 20 mg/kg free-base MPTP dose was used for every dose in both models. Sterile saline was used as the vehicle. Control mice were injected with saline solution using the same administration protocol and were defined as sham. Mice were sacrificed at different days after the first injection of MPTP. We used the acute protocol in C56BL/J mice to study dopamine neurodegeneration, inflammation, and motor deficits, whereas the subacute model was used to evaluate α-synuclein aggregation in the following examples. […]
The accelerating rotarod (Ugo Basile, Gemonio, ITALY) was used to evaluate locomotor function in mice subjected to the MPTP-acute administration. An accelerating program was selected to detect locomotor impairments associated to MPTP (Keshet et al, J Comp Neurol 504:690-701, 2007; Rui et al., Int J Neuropsychopharmacol., 2020). We used a rotarod device with a cylinder rod of three centimeters in diameter. The mice underwent a training period of three consecutive days prior to MPTP administration. In each training session, mice were subjected to run at four constant speeds (10 rpm, 20 rpm, 30 rpm, and 40 rpm) for 150 seconds at each speed. If mice fell during that time, they were put back in the rotarod immediately. On the testing day, we used an increased-speed program. Mice were placed on the rotarod device for 150 seconds at 30 rpm as warm up. Immediately after 150 seconds, the accelerating session started, and the speed increased from 30 rpm to 70 rpm for 500 seconds. Time to fall was recorded. Accelerating sessions were repeated three times with a resting interval of five minutes between sessions. Average time to fall per mouse was calculated and used as final measurement.
We then evaluated the effect of dapansutrile. To avoid overloading animals with fluid (which can lead to fatal heart failure), dapansutrile was administered through oral gavage at 200 mg/kg in water. Dapansutrile was given 30 minutes before the first injection of MPTP. Mice treated with saline were used as control. We also included a sham-group that received saline through intraperitoneal injections instead of MPTP. […]

“anakinra: Interleukin-1 receptor antagonist (IL-1Ra), 17.3 kDa; differs from native human IL-1Ra by an added amino-terminal methionine and absence of glycosylation [reference compound]”: the CSF penetration in data set [1] is listed as 0.2-0.3%. Besides, in data set [2], the “rotarod latency to fall versus control mice treated with saline” value is on record as “the same latency to fall”.
